Assay results as given in paper PMC4310633 (Biochemistry, 2014).

Biological target: the molecule itself
Assay: AUC

B1: ligand binding domain (LBD) of the GluN2A subunit of the NMDA receptor (domain or fragment)
chain: not shown
In the case of B1, the “stoichiometry N” value is reported as 2.

B2: ligand binding domain (LBD) of the GluN1 subunit of the NMDA receptor (domain or fragment)
chain: not shown
In the case of B2, the “stoichiometry N” value is reported as 2.
